Results published in patent US7786356B2, “Method for the production of calendic acid, a fatty acid containing delta 8,10,12 conjugated double bonds and related fatty acids having a modification at the delta 9 position” (E.I. du Pont de Nemours and Company, priority 1999, dated 2010).

Tests used:
[1] = test system: Saccharomyces cerevisiae INVSc1 cells; test: Expression of CalFad2-1 and CalFad2-2 in Saccharomyces cerevisiae; type: cell-based; conditions: cells grown in media containing 2 mM linoleic acid, 4 days at 16° C.; (w/w) of total fatty acids
From the text: The Calendula officinalis clones CalFad2-1 and CalFad2-2 were digested with the restriction enzymes EcoRI and XhoI. The resulting DNA fragments containing the entire cDNA inserts were purified by agarose gel electrophoresis. The purified cDNAs were ligated into the EcoRI and XhoI sites of the Saccharomyces cerevisiae expression vector pYES2 (Invitrogen) using T4 DNA ligase (New England Biolabs). The resulting plasmids pYes2/CalFad2-1 and pYes2/CalFad2-2 were introduced into Saccharomyces cerevisiae INVSc1 (Invitrogen Corp.) cells by lithium acetate-mediated transformation [Sherman F, Fink G R, Hicks J B, Methods in Yeast Genetics: A Laboratory Course Manual, Cold Spring Harbor Lab. Press, Plainview, N.Y. (1987)]. Transformed cells were selected for their ability to grow in the absence of uracil. […] In cells grown in media containing linoleic acid, calendic acid (18:3Δ^8trans,10trans,12cis) was detected in amounts of up to 2.9% (w/w) of the total fatty acids of cultures expressing CalFad2-1 (FIG. 3) and in amounts of up to 0.2% of the total fatty acids of cultures expressing CalFad2-2. […] No calendic acid was detected in cultures harboring the expression vector without a cDNA insert or in cells grown in the absence of exogenous linoleic acid. […]

[2] = test system: tobacco callus; test: Expression of CalFad2-1 in tobacco callus, GC/GC-MS of fatty acid methyl esters; type: cell-based, Nicotiana tabacum cv. Xanthi; conditions: stably transformed tobacco callus, 35S promoter
From the text: To characterize the activity of the CalFad2-1 in transgenic plant cells, the cDNA (ecs1c.pk009.n14) encoding this enzyme was expressed in tobacco callus with the gene under control of the cauliflower mosaic virus 35S promoter. The open-reading frame of the cDNA for CalFad2-1 was amplified by PCR to generate flanking […] restriction enzyme sites for cloning into the plant expression vector. The sequence of the sense oligonucleotide used in the amplification reaction was 5′-tttgagctc[…]-3′ (SEQ ID NO:16), and the sequence of the antisense oligonucleotide was 5′-tttggatcc[…]-3′ (SEQ ID NO: 17) [Note: the bases in lower case contain the added restriction sites, which are underlined, and flanking sequence to facilitate restriction enzyme digestion]. The design of the PCR primers was based on the sequence of the CalFad2-1 cDNA shown in SEQ ID NO:1. […]
Kanamycin-resistant tobacco callus that resulted from the transformation was examined for the presence of calendic acid arising from the activity of CalFad2-1. […] The recovered fatty acid methyl esters were then analyzed using a Hewlett-Packard 6890 chromatograph fitted with an Omegawax 320 column (30 m×0.32 mm inner diameter; Supelco). […] Fatty acid methyl prepared from the transgenic tobacco callus was analyzed with an HP6890 interfaced with a HP5973 (Hewlett-Packard) mass selective detector. […]

B1: CalFad2-1: Calendula officinalis fatty acid modifying enzyme (cDNA SEQ ID NO:1, protein SEQ ID NO:2) forming conjugated double bonds at delta-9 position (protein, listed as Calendula officinalis)
chain: MGKGASNKKVLERVPITKPPFEYNDLKKAVPPHCFSRPLFRSFYFLLHDIIVTCILFYVASNYIPMLPGFLSYIVWPVYWISQGVFLGRLWMIGHECGHHSFSNYRWVDDSVGFLIHTATLTPYFSFKYSHRNHHAHTNSMEYDEVHIPKRKSEALDLYFEFLGNNPMGLMITMLCKLTFGYAAYIMFNYTGKKHKSGGLASHFYPQSPLFNDSERNHVLFSDVGICIVLYACYRIVMVTGAMSAFYVYGIPWVIMSAILFAATYLQHTHPSIPHYDTTEWNWLRGALSTIDRDLGFFNMNKTHYHVIHHLFPVIPEYHAQEATEAIKPILGQYYKYDGTPFLKALWREMKDCIYVESDQGQKKQGIYWFKNKI
For B1, the “calendic acid (18:3Δ8trans,10trans,12cis), amount of the total fatty acids” value [1] was “up to 2.9%” and the “methyl calendic acid, amount of the total fatty acids” value [2] was “up to 11.4 % of the total fatty acids”.
